Usually pKd stands for the Kd on a negative log10 scale, so that one unit is a factor of ten. Usually stoichiometry N stands for the number of molecules, sites or subunits per partner or assembly.

pKd: −log10 of the molar value.

For data set [1], the system named is T1, phi13 CI, His-TEV tag cleaved (Staphylococcus aureus phage phi13), ORF:0019350b.
T1 sequence: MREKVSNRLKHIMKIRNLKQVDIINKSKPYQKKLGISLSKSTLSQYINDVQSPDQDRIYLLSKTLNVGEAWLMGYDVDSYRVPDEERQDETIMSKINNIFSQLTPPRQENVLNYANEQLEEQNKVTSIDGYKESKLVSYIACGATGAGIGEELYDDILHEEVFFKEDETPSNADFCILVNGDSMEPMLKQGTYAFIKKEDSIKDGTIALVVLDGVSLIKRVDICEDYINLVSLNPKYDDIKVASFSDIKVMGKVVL
Put plainly: EMSA.

Data set [2] relates to phi13 CI, His-TEV tag cleaved (Staphylococcus aureus phage phi13). In words: EMSA. The following applies: Binding buffer (as listed, possibly stock) 100 mM Tris-HCl, 5 mM EDTA, 500 mM NaCl, 5 mM DTT, 25% glycerol, plus BSA and sheared DNA; pH not stated; ~0.5 nM ….
Data set [3] concerns phi13 rCI (CI repressor, N-terminal His-TEV) (Staphylococcus aureus phage phi13). Put plainly: EMSA. To be noted: Binding buffer (as listed, possibly stock) 100 mM Tris-HCl, 5 mM EDTA, 500 mM NaCl, 5 mM DTT, 25% glycerol, plus BSA and sheared DNA; pH not stated; ~0.5 nM …. (In general: A gel shift assay detects complexes by their altered migration in electrophoresis.)
For data set [4] the test system is unchanged. In words: EMSA. To be noted: Binding buffer (as listed, possibly stock) 100 mM Tris-HCl, 5 mM EDTA, 500 mM NaCl, 5 mM DTT, 25% glycerol, plus BSA and sheared DNA, pH not stated, ~0.5 nM ….
For data set [5], the target named is ɸ13 rCI (recombinant CI repressor protein of phage ɸ13 with an N-terminal His-tag and TEV cleavage site) (S. aureus phage ɸ13). In words: SEC; HiLoad 26/600 Superdex200 column; 20 mM Tris, 100 mM NaCl, pH 7.5; calibrated with Mw standards (Blue Dextran, Ferritin, Catalase, Aldolase, Carbonic Anhydrase, Aprotinin); tagged rCI after IMAC. On the technique in general: Size exclusion chromatography separates by hydrodynamic size, large species first.

The mark [6] stands for this setting: apparent, free-probe loss, no specific band detected.

On to “GTAATACGACTCACTATAGGATAATAAAGCTTGTTGAACAAAAATTCAACAAAAAAGTTCATAAATCATGAATTTTTGTATTGACTTGATTCAAAACAAGGTGTAAAGTGGTAACTTTCACACAAAAGG (double strand) [OR]”, for which the pKd in data set [1] was 7.92.

For the substance “GTAATACGACTCACTATAGGATATACCGGTAGAGAAAATACACTTATATTTTTTTAAAGAAAAAGTTCATGTTATATGAACTTAAGGAGGGGCACAATGGAACAAATCACGGATCCGGTAACTTTCACACAAAAGG (double strand) [OD]”, the pKd in data set [1] was 7.92. In data set [1], “GTAATACGACTCACTATAGGGACTTGATTCAAAACAAGGTGTAAAGTATAGTTAAGTTCATGATACGTGAACTTGAGAGGAGGTGCTTTTATGTGTTACGACTACTCAGGTAACTTTCACACAAAAGG (double strand) [OL]” gave a pKd of 7.92. OD: the figures for the pKd in data set [2], in data set [3] and in data set [4] were 7.92, 7.82 and 8.48, respectively.

Consider OD control, for which the pKd in data set [4] (setting [6]) was 6.05. Regarding OL, the results for the pKd in data set [2], in data set [3] and in data set [4] were 7.92, 7.66 and 8.41, respectively. For the substance OL control, the pKd in data set [4] (setting [6]) was 6.16. Turning to OR, the pKd in data set [2] is 7.92; in data set [3] it was 6.51; in data set [4], 7.00. For OR control, in data set [4] (setting [6]), the pKd is 6.16. Regarding “ɸ13 rCI (recombinant CI repressor protein of phage ɸ13 with an N-terminal His-tag and TEV cleavage site)”, the stoichiometry N in data set [5] was determined as 4.

The values are drawn from paper PMC8516035.
